The test system of one assay is immature Dendritic Cells. Description: Calcium mobilization, immature dendritic cells. Type of assay: cell-based, human. As to the method: (§1) Human recombinant CKβ8-1(25-116) chemokine was obtained from R&D Systems (Minneapolis, Minn.). The peptide SHAAGtides SEQ ID NO:1 and SEQ ID NO:6 and a control protein (the reverse sequence of SEQ ID NO:1) were synthesized and HPLC-purified using routine techniques as described in Sambrook et al., 1989, and Ausubel et al., 1999.
(§2) Immature DCs were derived by culturing CD14+ monocytes in the presence of GM-CSF and IL4. Briefly, monocytes were cultured in a T-175 flask at 10^6 cells/ml in RPMI/10% FCS. Recombinant human GM-CSF and IL4 were added on day 0, 2, 4 and 6 to a final concentration of 1000 u/ml and 500 u/ml, respectively. Cells were harvested on day 7 as immature DCs and characterized for surface protein expression by FACS analysis. DC maturation was carried out by culturing day 6 immature DCs in macrophage-conditioned medium (MCM). Briefly, day 6 immature DCs were harvested by centrifugation and resuspended in MCM at 10^6 cells/ml. The medium was supplemented with 1000 u/ml of GM-CSF and 500 u/ml IL4. After three more days of culture, cells were harvested as mature DCs and characterized by surface protein expression flow cytometry.
(§3) Ca^2+ mobilization responses were performed using an intracellular ratiometric fluorescent dye, Indo-1. Cells were loaded with Indo-1/AM (3 μM; Molecular Probes (Eugene, Oreg.)) in culture medium (45 min, 20° C., 10^7 cells/mi). After dye loading, cells were washed once (10 ml PBS) and resuspended at 10^6 cell/ml in HBSS containing 1% FBS. Cytosolic [Ca^2+] release was determined using excitation at 350 nm using a Photon Technology International fluorimeter (excitation at 350 nm, ratioed dual emission at 400 and 490 nm).

Assay [1] has as its system human monocytes. Description: Calcium flux in human monocytes. In kind it is cell-based. Here is the method:
(§4) Ca^2+ mobilization responses were performed using the intracellular ratiometric fluorescent dye, lndo-1. Cells were loaded with Indo-1/AM (3 μM; Molecular Probes, Eugene, Oreg.) in culture medium (45 min, 20° C., 10^7 cells/ml). After dye loading, cells were washed once with 10 ml PBS) and resuspended at 10^6 cell/ml in HBSS containing 1% FBS. Cytosolic [Ca^2+] release was determined using excitation at 350 nm using a Photon Technology International fluorimeter (excitation at 350 nm, ratioed dual emission at 400 and 490 nm).
(§5) The human recombinant chemokines, leukotactin, MlP-1α, three known CKβ8 variants CKβ8(1-99), CKβ8(25-99), CKβ8-1(1-116) and a novel NH2-terminal truncated form of CKβ8-1, CKβ8-1 (25-116) were obtained from R&D Systems (Minneapolis, Minn.). Human monocytes were generated from buffy coats (Stanford Blood Center, Palo Alto, Calif.) following a standard protocol. Briefly, PBMC were isolated by standard density gradient centrifugation (Ficoll-Paque-Plus, Pharmacia). Monocytes were purified using CD14 Microbeads (Miltenyi, Auburn, Calif.) magnetic positive selection. Human neutrophils were isolated from fresh peripheral blood from healthy individuals by gradient centrifugation on Ficoll-Hypaque (Hyclone, Calif.).
The activity of the CCL23 variants was tested on freshly prepared human monocytes and neutrophils using the calcium flux test described in Example 1.
(§6) Human monocytes were either generated from buffy coats (Stanford Blood Center, Palo Also, Calif.) or from fresh blood of healthy individuals following a standard protocol. Briefly, PBMC were isolated by a Ficoll-Paque gradient centrifugation (Ficoll-Paque-Plus, Pharmacia). Monocytes were purified by CD14 Microbeads (Miltenyi) magnetic positive selection. Human neutrophils were isolated from fresh blood by dextran sedimentation and gradient centrifugation Ficoll-Paque gradient centrifugation. All cells were washed and resuspended (1×10^7/ml) in RPMI medium with 10% FBS.
as §3

Another assay concerns mature Dendritic Cells. The assay can be described thus: Calcium mobilization, mature dendritic cells. In kind it is cell-based, human. Here is the method: as §1, §2
MCM was prepared as follows: PBMCs isolated from buffy coat were incubated at 37° C. in a plastic flask pre-coated with 10 mg/ml human IgG (Sigma, St Louis, Mo.) for 30 minutes. After 30 minutes, non-adherent cells were removed and adherent cells were washed three times with DPBS, then cultured in RPMI/10% human serum. Conditioned-medium was collected after 24 hours. TNF-α concentration, which is critical for DC maturation, was determined by using a TNF-α ELISA kit (R&D Systems, Minn.). The final TNF-α level in MCM was adjusted to 50 u/mi by mixing with RPMI/10% human serum, and was stored at −80 freezer until use.
as §3

The test system of assay [2] is human neutrophils. The assay can be described thus: Calcium flux in human neutrophils. In kind it is cell-based. The note with it: human neutrophils. Here is the method:
as §4, §5, §6, §3

Assay [3] has as its system monocytes. Description: Cross-desensitization with leukotactin, monocytes. In kind it is cell-based, human. Here is the method:
(§7) In cross-desensitization tests tests, cells were stimulated sequentially with leukotactin and then the chemokines CKβ8(1-99), CKβ8(25-99), CKβ8-1(1-116), and CKβ8-1(25-116). On HEK293-CCR1 transfectants (prepared as in Example 1), leukotactin induced similar patterns of receptor desensitization to all variants.
(§8) Similar receptor cross-desensitization tests were performed using both monocytes and neutrophils (prepared as in Example 2).

For assay [4], the system named is human monocytes. Description: Migration assay (ChemoTx), human monocytes. In kind it is cell-based. The note with it: 90 min, 1-100 nM. Here is the method:
(§9) Migration assays were performed on monocytes and neutrophils. Human monocytes and neutrophils (prepared as in Exampe 2) were harvested and resuspended in chemotaxis medium (CM). The CM consisted of Hank's buffered salt solution (Gibco, Mass.) containing CaCl2 (1 mM) and MgSO4 (1 mM) with added 0.1% BSA (Sigma, St. Louis, Mo.). The assays were performed in 96-well ChemoTx® microplates (Neuroprobe, Mass.). Leukotactin, MlP-1α and chemokines (CKβ8(1-99), CKβ8(25-99), CKβ8-1(1-116) or CKβ8-1(25-116), prepared as in Example 1) were added to the lower wells (final volume 29 μL), and 20 μL of cell suspension (5×10^6 cells/mL for monocytes; 2.5×10^6 cells/mL for neutrophils) added to the polycarbonate filters (5 μm pore size for monocytes; 3 μm pore size for neutrophils). After incubation for 90 min (37° C., 100% humidity, 5% CO2), cells were removed from the upper surface of the filter by scraping. Cells that migrated into the lower chamber were quantified using the Quant cell proliferation assay kit (Molecular Probes, Oreg.).
The chemotactic activity on human monocytes and neutrophils of chemokines: CKβ8(1-99), CKβ8(25-99), CKβ8(1-116) and CKβ8(25-116); W peptides 1 and 2 and the SHAAGtide sequences SEQ ID NO:1 and SEQ ID NO:2 was determined in migration assays. The above peptides were prepared as in previous examples. The migration assays were performed in 96-well CHEMOTX® microplates (Neuroprobe) using the protocol described in Example 5.

Assay [5] has as its target monocytes. The assay can be described thus: 125I-MIP-1α binding competition, monocytes. Set-up: species or system human. The note with it: Monocytes. As to the method: The binding characteristics of CCL23 variants was compared in human CCR1 expressing cells. The ability of MIP-1α and the CCL23 variants CKβ8(1-99), CKβ8(25-99), CKβ8-1(1-116) and CKβ8-1(25-116) to compete with ^125I-MIP-1α binding was investigated in HEK293-CCR1 cells (prepared as in Example 1). The cells were incubated with ^125I-labeled MIP-1α (final conc. {dot over (˜)}0.05 nM) in the presence of unlabeled chemokine (3 hours at 4° C.: 25 mM HEPES, 140 mM NaCl, 1 mM CaCl2, 5 mM MgCl2 and 0.2% BSA, adjusted to pH 7.1). Reactions mixtures were aspirated onto PEI-treated GF/B glass filters using a cell harvester (Packard). The filters were washed twice (25 mM HEPES, 500 mM NaCl, 1 mM CaCl2, 5 mM MgCl2, adjusted to pH 7.1). Scintillant (MicroScint-10; 35 μl) was added to dried filters and the filiters counted in a Packard Topcount scintillation counter. Data were analyzed and plotted using Prism software (GraphPad Software, San Diego, Calif.).
(§10) Simiar binding competition tests were conducted on monocytes and neutrophils. These cells were prepared as in Example 2.

The subject of assay [6] is neutrophils. Description: Cross-desensitization with leukotactin, neutrophils. In kind it is cell-based, human. As to the method:
as §7, §8

Assay [7] relates to neutrophils. Description: MIP-1α binding, neutrophils. Set-up: species or system human. As to the method:
as §10

Assay [8] has as its system human neutrophils. The assay can be described thus: Migration assay (ChemoTx), human neutrophils. In kind it is cell-based. The note with it: 90 min, 100 nM. As to the method:
as §9, with “Leukotactin, MlP-1α and chemokines (CKβ8(1-99), CKβ8(25-99), CKβ8-1(1-116) or CKβ8-1(25-116), prepared as in Example 1) were added to the lower wells (final volume 29 μL), and 20 μL of cell suspension (5×10^6 cells/mL for monocytes; 2.5×10^6 cells/mL for neutrophils) added to the polycarbonate filters (5 μm pore size for monocytes; 3 μm pore size for neutrophils).” left out
The above peptides were prepared as in previous examples.

The target in a further assay is T1, CCR1 (Homo sapiens, UniProt P32246).
T1 construct: full length cDNA encoding CCR1 was cloned by the polymerase chain reaction (PCR) from genomic DNA isolated from human peripheral blood cells; expressed in transfected cells; pcDNA3.1 vector)
T1 sequence (P32246 1-355): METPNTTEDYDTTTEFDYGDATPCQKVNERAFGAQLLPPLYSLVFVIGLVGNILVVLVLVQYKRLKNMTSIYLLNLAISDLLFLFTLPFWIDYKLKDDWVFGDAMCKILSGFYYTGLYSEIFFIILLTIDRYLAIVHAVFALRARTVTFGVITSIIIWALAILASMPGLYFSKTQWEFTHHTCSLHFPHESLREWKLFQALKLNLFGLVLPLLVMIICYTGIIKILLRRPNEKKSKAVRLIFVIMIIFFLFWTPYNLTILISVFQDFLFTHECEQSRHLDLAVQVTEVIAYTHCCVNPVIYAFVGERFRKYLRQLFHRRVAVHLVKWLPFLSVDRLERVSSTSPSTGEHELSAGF
Description: 125I-MIP-1α binding competition, HEK293-CCR1 cells. The conditions noted are these: HEK293-CCR1, 3 hours at 4° C. As to the method:
The binding characteristics of CCL23 variants was compared in human CCR1 expressing cells. […] Reactions mixtures were aspirated onto PEI-treated GF/B glass filters using a cell harvester (Packard). The filters were washed twice (25 mM HEPES, 500 mM NaCl, 1 mM CaCl2, 5 mM MgCl2, adjusted to pH 7.1). Scintillant (MicroScint-10; 35 μl) was added to dried filters and the filiters counted in a Packard Topcount scintillation counter. Data were analyzed and plotted using Prism software (GraphPad Software, San Diego, Calif.).

Several values for one entry are separate records, joined by “and”; a condition that tells them apart may be missing. Identical values can stand only once.

Regarding “Gly Ala Ala His Ser Leu Thr Met Gin Pro Gly lie Lys Arg Arg Trp Leu Met (GAAHSLTMQPGIKRRWLM) [Control peptide (SEQ ID NO: 33), reference compound]”, the calcium flux entry is listed as “No significant calcium flux” with immature Dendritic Cells; “No significant calcium flux” with human monocytes [1] (human monocytes, Example 8); “No significant calcium flux” in the assay on mature Dendritic Cells; “No significant calcium flux” with human neutrophils [2] (Example 8).

B1: CKβ8(1-99): known CKβ8 (CCL23) variant, human recombinant chemokine from R&D Systems (protein, listed as Homo sapiens)
chain: RVTKDAETEFMMSKLPLENPVLLDRFHATSADCCISYTPRSIPCSLLESYFETNSECSKPGVIFLTKKGRRFCANPSDKQVQVCMRMLKLDTRIKTRKN
Turning to B1, the “desensitization by leukotactin prestimulation” value with monocytes [3] was “completely desensitized”; in the assay on neutrophils [6], “inactive”. Moreover, the migration of monocytes result with human monocytes [4] was “moderate activity”. Further, the calcium release entry in the assay with human monocytes [1] (freshly prepared human monocytes, up to 250 nM) is reported as “poor activity”. Also, the IC50 on monocytes [5] is 10 nM and 10.3 nM. For the same molecule, in the assay with human neutrophils [2] (100 nM), the calcium flux entry is recorded as “neither MlP-1α nor CKβ8(1-99), CKβ8(25-99) or CKβ8(1-116) induced a calcium flux”.

B2: MIP-1α: macrophage inflammatory protein, human recombinant chemokine, CCR1 ligand (protein, listed as Homo sapiens)
chain: SLAADTPTACCFSYTSRQIPQNFIADYFETSSQCSKPGVIFLTKRSRQVCADPSEEWVQKYVSDLE
Turning to B2, in the assay on neutrophils [7], the “MIP-1α binding to neutrophils” value is on record as “does not bind neutrophils”. The results for the concentration for half-maximal inhibition (IC50) at monocytes [5] and with CCR1 were 0.27 nM and 0.54 nM, respectively. Also, the migration of neutrophils result in the assay on human neutrophils [8] was “none of the known CCR1 ligands including leukotactin and MlP-1α was active”. In addition, the calcium flux result in the assay on human neutrophils [2] (100 nM) was “neither MlP-1α nor CKβ8(1-99), CKβ8(25-99) or CKβ8(1-116) induced a calcium flux”.

B3: leukotactin: human recombinant chemokine, CCR1 agonist (protein, listed as Homo sapiens)
chain: SFHFAADCCTSYISQSIPCSLMKSYFETSSECSKPGVIFLTKKGRQVCAKPSGPGVQDCMKKLKPYSI
On to B3, for which the migration of neutrophils entry in the assay on human neutrophils [8] was “none of the known CCR1 ligands including leukotactin and MlP-1α was active”. Further, the calcium flux result in the assay on human neutrophils [2] (100 nM) is reported as “induced a calcium flux”.

Values taken from patent US8637043B2, “Compositions useful as ligands for the formyl peptide receptor like 1 receptor and methods of use thereof” (Chemocentryx, Inc., priority 2001, dated 2014).
